“Also recorded” adds a separate entry of the source.
Tests used:
[1] = test system: keloid cell; assay: Keloid cell matrix synthesis; format: cell-based; conditions: 0, 50, 100, 200, 500 ng/ml
[2] = test system: MSCs or MSC-derived fibroblasts (MSC-Fb); assay: Myofibroblastic differentiation: αSMA expression by immunofluorescence and flow cytometry; format: cell-based, human
Method: MSC-derived fibroblasts were subjected to 5 ng/mL recombinant human TGFβ1 (R&D Systems, Minneapolis, Minn.) for 7 days. Undifferentiated hMSCs were treated with TGFβ1 as control. The expression of αSMA (Abcam, Cambridge, Mass.) was evaluated by immunofluorescence with rhodamine-phalloidin (Invitrogen, Carlsbad, Calif.). The number of αSMA+ cells was quantified by flow cytometry.
Briefly, cells were trypsinized, counted, resuspended into 1×10^6 cells/tube and fixed in […] formaldehyde. Following washing in 0.1% triton, the cells were incubated with αSMA primary antibody (Abcam, Cambridge, Mass.) for 30 min. Following centrifugation at 400 g for 5 min, the cells were incubated with fluorochrome-labeled secondary antibody (Abcam, Cambridge, Mass.) for 30 min in the dark, and resuspended in PBS supplemented with 3% BSA and 1% sodium azide. The samples were then analyzed using a multifunctional cell sorter (FACSAria™ II; BD Biosciences, San Jose, Calif.).

[3] = test system: MSCs in collagen type I gel; assay: Collagen gel contraction assay; format: cell-based, human; conditions: cell-populated collagen lattices, up to 7 days
Method: Neutralized collagen type I (2 mg/mL) (R&D Systems, Minneapolis, Minn.) was mixed thoroughly with 1×10^6/mL MSCs, MSC-Fb or αSMA+ cells. Cell-populated collagen solution was cast in 24-well plates for 1 hr at 37° C. to induce gelation. Upon 48-hr incubation, cell-populated collagen lattices were physically detached and allowed to float freely in medium. Up to the tested 7 days, the diameters of cell-populated collagen lattices were measured on digital images.

[4] = test system: Human mesenchymal stem cells (hMSCs); assay: CCN2/CTGF fibroblastic differentiation of hMSCs: collagen deposition (Trichrome staining), collagen type I and tenascin-C ELISA; format: cell-based
Description: Human mesenchymal stem cells (hMSCs) were isolated from fresh whole bone marrow samples of two anonymous adult donors (age range: 20-25 yrs old) (AllCells, Berkeley, Calif.). Mononucleated and adherent cells were purified by centrifugation through a density gradient (Ficoll-Paque) per our prior methods (30) and using negative selection following manufacturer's protocols (RosetteSep, StemCell Technologies, Vancouver, Canada) to remove hematopoietic cells and other differentiated cells.
Briefly, bone marrow was transferred to a 50 mL tube, followed by addition of […] of RosetteSep and incubation for 20 min. Then 15 mL PBS in 2% fetal bovine serum (FBS) and 1 mM ethylenediaminetetraacetic acid (EDTA) were added to a total volume of ˜30 mL. The sample was layered on 15 mL Ficoll-Paque and centrifuged 25 min at 3000×g. The entire layer of enriched cells was removed from Ficoll-Paque interface. The cocktail was centrifuged at 1000 rpm for 10 min. Collected cells were counted using trypan blue, plated at 0.5-1 million cells per 100 mm dish and allowed to attach for about 5 days, followed by regular medium change every two days. At 80-90% confluence, cells were trypsinized, centrifuged, resuspended in growth medium as passage 1 (P1) cells, and incubated in 5% CO2 at 37° C., with fresh medium changes every 3-4 days. Growth medium was defined as Dulbecco's Modified Eagle's Medium-Low Glucose (DMEM-LG; Sigma, St. Louis, Mo.), 1% antibiotic (1× Antibiotic-Antimycotic, including […] Penicillin G sodium, 10 mg/mL Streptomycin sulfate and 0.25 μg/mL amphotericine B) (Gibco, Invitrogen, Carlsbad, Calif.) and 10% Fetal Bovine Serum (FBS; Atlanta Biologicals, Norcross, Ga.).
P3 or P4 hMSCs were culture-expanded in monolayer (˜5,000 cells/well) in 12-well plates. At 80-90% confluence, hMSCs were culture-supplemented with 0, 10, 50 or 100 ng/mL recombinant human connective tissue growth factor (CTGF) (BioVendor, Candler, N.C.) and 50 μg/mL ascorbic acid (Sigma), with conditioned medium change every third day. […] Accordingly, 100 ng/mL CCN2/CTGF was selected for fibroblastic differentiation for in vitro experiments.
(§1) Two to four weeks following CCN2/CTGF treatment, collagen type I and tenascin-C (Tn-C) were assayed by ELISA using commercial kits (Chondrex, Redmond, Wash. and IBL-America, Minneapolis, Minn.). Collagen type I matrix was lysed using 0.5 M acetic acid. Collagen deposition was visualized using Trichrome staining. Total RNA was isolated using Trizol from CCN2/CTGF-treated hMSCs. Following lysing with Trizol, samples were incubated for 5 min at RT. A total of 0.2 mL chloroform per mL Trizol was added, and followed by mixing and incubation for 3 min. After centrifugation at 12,000×g and 4° C. for 15 min, the upper phase was transferred into a new tube with 500 μL isopropanol added. After 10 min incubation and another centrifugation for 10 min at 12,000×g, the supernatant was discarded. The pellet was washed with 1 mL 75% ethanol and dried for 5-10 min. RNA samples were eluted in 50 μL DEPC-water, assessed for concentration and purity at 260 and 280 nm, and stored at −80° C. prior to reverse transcription. All RNA samples were reverse transcribed using a kit (Applied Biosystems, Foster City, Calif.). For mRNA quantification, real-time quantitative PCR reactions with the cDNA samples were performed using 7300 Real Time PCR System TaqMan® gene expression assays (Applied Biosystems, Foster City, Calif.). Commercially available primers and probes for human collagen types I and III, Tn-C, fibronectin (FN), matrix metallopeptidase-1 (MMP-1), fibroblastic specific protein 1 (FSP1), and vimentin were used (49, 50). Collagen type II (Col-II) and osteocalcin (OC) were selected as chondrogenic and osteogenic differentiation markers, respectively. CD29, CD44, CD105, CD106, CD117, BMPR, and sca1 were selected as MSC markers (30, 31). GAPDH was used as housekeeping gene.

[5] = test system: Human mesenchymal stem cells (hMSCs); assay: Real-time quantitative PCR of MSC, fibroblastic, osteogenic, chondrogenic and myofibroblastic markers in CCN2/CTGF-treated hMSCs; format: cell-based
Method: as §1

[6] = test system: CCN2/CTGF-treated MSCs (MSC-Fb); assay: Osteogenic, chondrogenic and adipogenic differentiation of CCN2/CTGF-treated MSCs (von Kossa, Alizarin Red, Safranin O, Oil-Red O); format: cell-based, human
Method: Chondrogenic medium was supplemented with 10 ng/mL transforming growth factor β3 (TGFβ3) (R&D Systems, Minneapolis, Minn.), whereas osteogenic medium was supplemented with 100 nM dexamethasone, 10 mM β-glycerophosphate, and 0.05 mM ascorbic acid-2-phosphate (Sigma) per our prior methods (31, 51). At Days 14 and 28, von Kossa staining and calcium assay was performed to evaluate osteogenic differentiation, whereas safranin O (Saf-O) straining and glycosaminoglycan (GAG) assays were performed to evaluate chondrogenic differentiation (Blyscan™, Biocolor, UK).
Osteogenic and chondrogenic medium were prepared as described above. Adipogenic medium contained […], 0.5 mM isobutylmethylxanthine, and […] per our prior methods (31, 52, 53). In 4 wks, Alizarin Red, Saf-O, and Oil-Red O staining were performed.

[7] = test system: calvarial suture explants; assay: Ex vivo modulation of calvarial morphogenesis in organ culture; parameters: species or system Sprague-Dawley rats
Method: Calvarial explants, including frontal and parietal bones with intervening interfrontal, coronal and sagittal sutures were harvested with intact dura mater from p10 male Sprague-Dawley rats (Harlan, Indianapolis, Ind.). Isolated calvaria were placed in 12-well tissue culture plates with serum-free medium supplemented with 0 or 50 ng/mL recombinant human CCN2/CTGF (35), with medium change every 2 days. The CCN2/CTGF concentration was determined (data not shown). Five to 25 days following CCN2/CTGF treatment, Tn-C contents in supernatant were assayed using ELISA. Explant-cultured calvarial sutures were sectioned sagittally for H&E staining and immunohistochemistry. Calvarial sutures were scanned with pCT (vivaCT 40; Scanco, Southeastern, Pa.) to measure suture width.

[8] = test system: calvarial suture mesenchymal cells; assay: Fibroblastic differentiation of calvarial suture mesenchymal cells; format: cell-based, rat; conditions: 100 ng/mL, cells from p7 patent calvarial sutures
Method: To isolate calvarial mesenchymal cells, the posterior interfrontal suture excluding calvarial bones was carefully dissected from p7 rat calvaria using surgical scissors. The overlying periosteum and the underlying dura mater were removed under dissection microscope. The isolated suture mesenchyme was lysed using 2 mg/mL collagenase for 1 hr at 37° C., and filtered with a tissue strainer (Fisher, Pittsburgh, Pa.). After centrifugation, the collected cells were counted using trypan blue, plated at 20,000-30,000 cells per 6-well plate, and allowed to attach for about 5 days, followed by medium change every 2-3 days until confluence. P1 or P2 calvarial cells were induced for osteogenic, chondrogenic, adipogenic, and fibroblastic differentiations for 4 wks as described below.

[9] = 2 and 4 wks, vs MSCs without CCN2/CTGF
[10] = 2 and 4 wks of CCN2/CTGF treatment

COC(=O)[C@@]1(O)C[C@H]2O[C@]1(C)n1c3ccccc3c3c4c(c5c6ccccc6n2c5c31)C(=O)NC4 [K252A]
keloid cell matrix synthesis [1]: inhibits keloid cell matrix synthesis

TGFβ1: recombinant human TGFβ1 (R&D Systems), a known stimulant for myofibroblast phenotype
αSMA expression (immunofluorescence) ([2]; 5 ng/mL TGFβ1 on CCN2/CTGF-treated MSCs / MSC-derived fibroblastic cells): readily expressed αSMA+ microfilaments
cells that gained αSMA phenotype (flow cytometry) ([2]; TGFβ1 stimulation of CCN2/CTGF-treated MSCs (MSC-Fb)): 31.9%
cells that gained αSMA phenotype (flow cytometry) ([2]; TGFβ1 stimulation of undifferentiated MSCs without prior CCN2/CTGF treatment): 1.8%
contraction of collagen gel [3]: moderate contraction

B1: CCN2/CTGF: recombinant human connective tissue growth factor (BioVendor); 36-38 kDa cysteine-rich protein of the CCN family; SEQ ID NO: 1 (protein, listed as Homo sapiens)
chain: MTAASMGPVRVAFVVLLALCSRPAVGQNCSGPCRCPDEPAPRCPAGVSLVLDGCGCCRVCAKQLGELCTERDPCDPHKGLFCDFGSPANRKIGVCTAKDGAPCIFGGTVYRSGESFQSSCKYQCTCLDGAVGCMPLCSMDVRLPSPDCPFPRRVKLPGKCCEEWVCDEPKDQTVVGPALAAYRLEDTFGPDPTMIRANCLVQTTEWSACSKTCGMGISTRVTNDNASCRLEKQSRLCMVRPCEADLEENIKKGKKCIRTPKISKPIKFELSGCTSMKTYRAKFCGVCTDGRCCTPHRTTTLPVEFKCPDGEVMKKNMMFIKTCACHYNCPGDNDIFESLYYRKMYGDMA
collagen deposition with dose (Goldner's Trichrome staining) ([4]; 0, 10, 50 or 100 ng/mL, 4 wks): increased with increasing CCN2/CTGF doses
collagen synthesis ([4]; 10 ng/mL): sufficient to stimulate collagen synthesis
collagen synthesis ([4]; 50 ng/mL and 100 ng/mL, compared with 10 ng/mL): apparently more potent
collagen synthesis (Trichrome staining) ([4]; 100 ng/mL, 4 wks, vs MSCs without CCN2/CTGF): induced remarkable collagen synthesis; also recorded: prompted substantial collagen synthesis
collagen type I content (ELISA) [4, 9]: significantly greater; also recorded: significantly higher
tenascin-C content (ELISA) [4, 9]: significantly greater; also recorded: significantly higher
MSC stemness markers (CD29, CD44, CD105, CD106, CD117, BMPR, Sca1) [5, 10]: steady decreases; also recorded: gradually attenuated
fibroblastic mRNA markers (collagen types I and III, Tn-C, fibronectin, MMP-1, FSP1, vimentin) [5, 10]: concomitant increases; also recorded: gradually increased
chondrogenic marker collagen type II expression ([5]; CCN2/CTGF-treated MSCs): undetectable
myofibroblastic marker αSMA expression (RT-PCR) ([5]; CCN2/CTGF-treated MSCs): αSMA negative; also recorded: undetectable
osteogenic marker osteopontin expression ([5]; CCN2/CTGF-treated MSCs): undetectable; also recorded: minimally expressed
Safranin O staining ([6]; CCN2/CTGF-treated MSCs): negative
Von Kossa staining ([6]; CCN2/CTGF-treated MSCs): negative
ability to differentiate into osteogenic, chondrogenic and adipogenic cells ([6]; after 4 wk CCN2/CTGF stimulation (100 ng/mL), vs CCN2/CTGF-free MSCs): diminished ability to differentiate; also recorded: minimal capacity to further differentiate
αSMA expression (flow cytometry) ([2]; CCN2/CTGF-treated MSCs (MSC-Fb), no TGFβ1): general absence of αSMA; also recorded: absence of αSMA expression
αSMA expression (immunofluorescence) ([2]; CCN2/CTGF-treated MSCs, no TGFβ1): did not express αSMA; also recorded: minimal
contraction of collagen gel [3]: moderate contraction
rescue of calvarial suture from ectopic mineralization ([7]; 50 ng/mL to p10 explant for 25 days): rescued the calvarial suture from undergoing ectopic mineralization
rescue of calvarial suture from synostosis ([7]; 100 ng/mL, ex vivo culture to p35): rescued calvarial suture from undergoing synostosis
FSP1 and vimentin expression in calvarial suture ([7]; ex vivo CCN2/CTGF-treated suture): expressed
suture width (μCT) ([7]; p35, vs without CCN2/CTGF): significantly greater; also recorded: significantly wider
Tn-C (tenascin C) content of sutures ([7]; vs CCN2/CTGF-free sutures): significantly greater; also recorded: significantly more
differentiation into fibroblast-like cells (Trichrome) [8]: readily differentiated into fibroblast-like cells that are highly Trichrome positive

— patent US20130028978A1, “COMPOSITIONS AND METHODS FOR WOUND TREATMENT” (The Trustees of Columbia University in the City of New York, priority 2009, published 2013)
